# According to PMC2692298:
# Read-outs that look alike come from different tables or passages of the source.
# How the values were obtained:
# [1] = biological target: CXCR4 on THP-1 cells (human (endogenous in THP-1)) (UniProt P61073)
# [2] = biological target: CXCR4 on THP-1 cells (human (endogenous in THP-1)) (UniProt P61073); remark: listed apart in the source
# Chain of CXCR4 on THP-1 cells (human (endogenous in THP-1)) (P61073 whole entry): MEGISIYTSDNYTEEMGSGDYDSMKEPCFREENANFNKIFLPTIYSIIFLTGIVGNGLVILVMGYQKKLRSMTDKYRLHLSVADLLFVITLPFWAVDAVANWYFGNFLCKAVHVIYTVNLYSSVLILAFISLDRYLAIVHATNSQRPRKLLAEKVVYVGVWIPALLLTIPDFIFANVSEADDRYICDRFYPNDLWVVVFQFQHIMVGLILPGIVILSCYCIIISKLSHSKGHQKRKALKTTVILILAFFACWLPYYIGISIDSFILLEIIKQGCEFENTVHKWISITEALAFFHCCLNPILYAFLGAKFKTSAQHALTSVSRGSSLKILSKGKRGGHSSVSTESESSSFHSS
# Chain of SDF-1 Glu60Ala (P48061 22-93 E81A): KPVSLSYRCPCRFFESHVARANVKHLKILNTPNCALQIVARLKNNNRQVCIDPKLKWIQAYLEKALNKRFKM
# Chain of SDF-1 Lys64Ala (P48061 22-93 K64A): as the sequence (P48061 22-93 E81A) above, with K43A, A60E counted along it
# Chain of SDF-1 Lys27Ala (P48061 22-93 K48A): as the sequence (P48061 22-93 E81A) above, with K27A, A60E counted along it
# Chain of SDF-1 Val39Ala (P48061 22-93 V39A): as the sequence (P48061 22-93 E81A) above, with V18A, A60E counted along it
# Chain of SDF-1 Lys27Glu (P48061 22-93 K48E): as the sequence (P48061 22-93 E81A) above, with K27E, A60E counted along it
# Chain of SDF-1 Arg47Glu (P48061 22-93 R68E): as the sequence (P48061 22-93 E81A) above, with R47E, A60E counted along it
# Chain of SDF-1 Val49Ala (P48061 22-93 V70A): as the sequence (P48061 22-93 E81A) above, with V49A, A60E counted along it
# Chain of SDF-1 Arg47Ala (P48061 22-93 R68A): as the sequence (P48061 22-93 E81A) above, with R47A, A60E counted along it
# Chain of SDF-1 Glu63Ala (P48061 22-93 E84A): as the sequence (P48061 22-93 E81A) above, with A60E, E63A counted along it
Substance,EC50 of Ca2+ mobilization in THP-1 cells [1] [nM],EC50 of Ca2+ mobilization in THP-1 cells [2] [nM]
"SDF1(L36C/A65C), covalently-locked symmetric dimer (from UniProt P48061 22-93) (ligand)",–,12.9
SDF-1 Val39Ala (from UniProt P48061 22-93) (ligand),27.1,–
SDF-1 Arg47Ala (from UniProt P48061 22-93) (ligand),14.1,–
SDF-1 Arg47Glu (from UniProt P48061 22-93) (ligand),654,–
SDF-1 Lys64Ala (from UniProt P48061 22-93) (ligand),5,–
SDF-1 Lys27Ala (from UniProt P48061 22-93) (ligand),10.1,–
SDF-1 Arg41Ala (from UniProt P48061 22-93) (ligand),4.3,–

# The next lines start with the values.
EC50 of Ca2+ mobilization in THP-1 cells [1] [nM],EC50 of Ca2+ mobilization in THP-1 cells [2] [nM],Substance
16.8,–,SDF-1 Lys27Glu (from UniProt P48061 22-93) (ligand)
8.6,–,SDF-1 Val49Ala (from UniProt P48061 22-93) (ligand)
3.6,–,"stromal cell derived factor-1 (SDF-1, also known as CXCL12), wild type (from UniProt P48061 22-93) (ligand)"
4.3,–,SDF-1 Arg20Ala (from UniProt P48061 22-93) (ligand)
3.7,–,SDF-1 Glu63Ala (from UniProt P48061 22-93) (ligand)
4.1,–,SDF-1 Glu60Ala (from UniProt P48061 22-93) (ligand)
5.1,–,SDF1(H25R) (from UniProt P48061 22-93) (ligand)
